This data set concerns the target APOBEC3B (A3B) WT (human, UniProt Q9UH17 1-382). As to the kind of experiment: EMSA with unlabeled self-competitor; binds ssDNA and ssRNA equally strongly; Competition EMSA: 25 mM HEPES pH 7.4, 50 mM NaCl, 0.4 U/ul RNase inhibitor, room temperature, 5 min binding plus 10 min with competitor; R-loop substrate EMSA:
The following applies: protein: recombinant; tags: C-terminal mycHis; label: 5' IRDye800CW. (In general: A gel shift assay detects complexes by their altered migration in electrophoresis.)

Chain of APOBEC3B (A3B) WT (Q9UH17 whole entry): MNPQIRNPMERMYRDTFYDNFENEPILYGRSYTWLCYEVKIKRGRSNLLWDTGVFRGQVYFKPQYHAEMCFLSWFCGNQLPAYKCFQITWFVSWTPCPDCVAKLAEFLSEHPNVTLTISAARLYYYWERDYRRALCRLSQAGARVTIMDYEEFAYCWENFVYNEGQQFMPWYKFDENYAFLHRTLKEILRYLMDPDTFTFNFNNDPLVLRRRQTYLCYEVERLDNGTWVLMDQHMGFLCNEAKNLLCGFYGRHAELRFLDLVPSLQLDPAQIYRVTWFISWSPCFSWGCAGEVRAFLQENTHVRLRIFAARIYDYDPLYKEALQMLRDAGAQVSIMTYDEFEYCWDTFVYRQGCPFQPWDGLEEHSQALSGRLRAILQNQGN

In the case of AUUAGUCAUAUGGAU (ssRNA) [short 15-mer ssRNA (A3B RNA EMSA)], the binding result is “binds”.

In the case of ATTAGTCATATGGAT (ssDNA) [short 15-mer ssDNA (A3B DNA EMSA)], the binding result is “binds”.

These data come from paper PMC10562255, “APOBEC3B regulates R-loops and promotes transcription-associated mutagenesis in cancer”.
